In publication PMC8367383, “A CTP-dependent gating mechanism enables ParB spreading on DNA” (eLife, 2021):
Where a chain is given by its changes, count along the chain named. Numbers in names are those of the source.

Assays:
[1] = molecular target: T1, C. crescentus ParB (WT); ParB-His6 (Caulobacter vibrioides, UniProt B8GW30, E102A); experiment: DRaCALA membrane-spotting; type: binding; details: labelled compound (5 nM 32P-alpha-CTP with 30 uM unlabelled CTP); 1.5 uM 22 bp parS DNA; 10 mM CaCl2, pH 8.0, room temperature
T1 construct: full length, C-terminal His6 (pET21b), made in E. coli; dimer

[2] = molecular target: T2, C. crescentus ParB (WT); ParB-His6 (Caulobacter vibrioides, UniProt B8GW30); experiment: EnzChek inorganic phosphate release; type: biochemical; details: 0-1000 uM CTP, 1 uM ParB, 0.5 uM 22 bp parS DNA; Mg2+, pH 8.0, 25 C; rates only in figure
T2 construct: full length, C-terminal His6 (pET21b), made in E. coli; dimer

[3] = molecular target: C. crescentus ParB (L224C I304C), dual-cysteine variant (C. crescentus) (UniProt B8GW30); experiment: cross-linking; BMOE double crosslinking of 8 µM dual-cysteine ParB variant ± 0.5 µM DNA (22 bp parS, circular 3 kb parS or scrambled parS plasmid) ± 1 mM CTP; denaturing polyacrylamide and agarose gels; post-treatment with Benzonase or TEV protease; protein released from gel slices of the HMW smear
CTP = experiment: membrane-spotting assay (DRaCALA); details: highest protein concentration point (about 12.5 µM on x axis); 5 nM radiolabeled CTP α-P32, 30 µM unlabeled CTP, 1.5 µM 22 bp parS DNA; parent: est. 13; read off a plot
ParB∆CTD-His6 = molecular target: T3, ParB∆CTD-His6 (Caulobacter crescentus, UniProt B8GW30 11-254); experiment: crystal structure; no nucleotide; BLI: 100 mM Tris-HCl pH 8.0, 100 mM NaCl, 1 mM MgCl2, 0.005% Tween 20, 22 °C, 1 µM ParB dimer (5 µM for Q35C); crosslinking: 8 µM ParB, 0.5 µM DNA, ±1 mM CTP; details: protein: recombinant; tags: C-terminal His6; chain copies: 2; blunt, self-complementary palindrome
T3 sequence: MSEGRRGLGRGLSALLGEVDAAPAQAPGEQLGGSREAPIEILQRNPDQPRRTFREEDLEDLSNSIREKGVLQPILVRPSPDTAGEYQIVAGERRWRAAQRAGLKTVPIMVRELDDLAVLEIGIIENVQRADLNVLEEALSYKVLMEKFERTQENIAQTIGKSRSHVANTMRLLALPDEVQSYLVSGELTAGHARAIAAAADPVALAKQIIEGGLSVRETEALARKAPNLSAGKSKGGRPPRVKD

[4] = molecular target: the molecule itself; experiment: cross-linking; BMOE (1 mM) crosslinking of symmetry-related cysteines; 8 µM single-cysteine ParB variant ± 0.5 µM 22 bp parS DNA ± CTP (0-1000 µM); 10 mM Tris-HCl pH 7.4, 100 mM NaCl, 1 mM MgCl2; 5 min at room temperature; denaturing polyacrylamide gel

T2 sequence (B8GW30 whole entry): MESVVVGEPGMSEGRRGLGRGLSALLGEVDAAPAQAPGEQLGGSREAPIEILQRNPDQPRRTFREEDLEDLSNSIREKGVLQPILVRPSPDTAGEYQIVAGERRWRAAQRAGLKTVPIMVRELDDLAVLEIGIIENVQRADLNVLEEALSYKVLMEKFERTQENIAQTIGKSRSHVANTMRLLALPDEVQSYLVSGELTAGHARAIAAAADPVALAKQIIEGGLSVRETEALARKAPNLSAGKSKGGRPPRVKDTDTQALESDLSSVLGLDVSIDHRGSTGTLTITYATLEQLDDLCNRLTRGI
T1 sequence (B8GW30 whole entry E102A): as the sequence (B8GW30 whole entry) above, with E102A counted along it

## Nc1ccn([C@@H]2O[C@H](COP(=O)(O)OP(=O)(O)OP(=O)(O)O)[C@@H](O)[C@H]2O)c(=O)n1 [CTP]
[1]
  DRaCALA membrane-spotting: ParB (E102A) did not hydrolyze CTP (Figure 6B) but nevertheless bound CTP efficiently
[2]
  EnzChek inorganic phosphate release: The CTPase rates were measured at increasing concentration of CTP

## C. crescentus ParB (L224C I304C), dual-cysteine variant (from UniProt B8GW30 1-304)
[3]
  stoichiometry N: 2

## C. crescentus ParB (WT) E102A
CTP
  response: 24%

## C. crescentus ParB (WT) E135A
CTP
  response: 26%

## C. crescentus ParB (WT) G79S
CTP
  response: 3.5%

## C. crescentus ParB (WT) N136A
CTP
  response: 0.7%

## C. crescentus ParB (WT) Q58A
CTP
  response: 10%

## C. crescentus ParB (WT) Q82A
CTP
  response: 15%

## C. crescentus ParB (WT) R60A
CTP
  response: 0.7%

## C. crescentus ParB (WT) R104A
CTP
  response: 0%

## C. crescentus ParB (WT) R139A
CTP
  response: 1.5%

## C. crescentus ParB (WT) S74A
CTP
  response: 0.5%

B1: 22 bp parS (dsDNA)
DNA 1: GGATGTTTCACGTGAAACATCC
DNA 2: GGATGTTTCACGTGAAACATCC
ParB∆CTD-His6
  binding result: binds

B2: C. crescentus ParB (Q35C) on a cysteine-less ParB (C297S) background (natural protein, UniProt B8GW30 1-304, looked up)
chain: MESVVVGEPGMSEGRRGLGRGLSALLGEVDAAPACAPGEQLGGSREAPIEILQRNPDQPRRTFREEDLEDLSNSIREKGVLQPILVRPSPDTAGEYQIVAGERRWRAAQRAGLKTVPIMVRELDDLAVLEIGIIENVQRADLNVLEEALSYKVLMEKFERTQENIAQTIGKSRSHVANTMRLLALPDEVQSYLVSGELTAGHARAIAAAADPVALAKQIIEGGLSVRETEALARKAPNLSAGKSKGGRPPRVKDTDTQALESDLSSVLGLDVSIDHRGSTGTLTITYATLEQLDDLSNRLTRGI
notes: ParB, Caulobacter crescentus, with the stated substitutions; pET21b construct, so probably made in E. coli; source: purified (HIS-Select Cobalt gravity flow column, PD-10)
[4]
  binding result: binds

B3: C. crescentus ParB (I304C) on a cysteine-less ParB (C297S) background (natural protein, UniProt B8GW30 1-304, looked up)
chain: B2 chain with C35Q, I304C
notes: as for B2
[4]
  binding result: binds

B4: C. crescentus ParB (L224C) on a cysteine-less ParB (C297S) background (natural protein, UniProt B8GW30 1-304, looked up)
chain: B2 chain with C35Q, L224C
notes: as for B2
[4]
  binding result: binds
